One data set concerns the target T1, VII (Homo sapiens, UniProt P08709).
T1 construct: Purified plasma-derived VII, X and factor Xa (Xa) were from Enzyme Research Laboratories; purchased Enzyme Research Laboratories; host or cells: plasma
Put plainly: Factor VII autoactivation. Format: biochemical. Conditions: 15 nM VII and TF; 37° C.; liposomes. Here is the method:
An additional function of TF is to promote the autoactivation of VII in a reaction that is dependent on TF surface density.
Factor VII autoactivation. Rates of VII autoactivation were measured essentially as described. Equimolar concentrations of VII and TF (15 nM each) were incubated in HBSAC at 37° C. […] A 20 μl aliquot of 5 mM Chromozym t-PA substrate was added and the change in A405 was monitored at ambient temperature. Two-dimensional second-order rate constants (k2D) were determined as described.

The target of a further data set is T2, VIIa (Homo sapiens, UniProt P08709).
T2 construct: VIIa or factor VIIa means coagulation factor VIIa (active enzyme); purchased American Diagnostica
T2 sequence (P08709 61-212): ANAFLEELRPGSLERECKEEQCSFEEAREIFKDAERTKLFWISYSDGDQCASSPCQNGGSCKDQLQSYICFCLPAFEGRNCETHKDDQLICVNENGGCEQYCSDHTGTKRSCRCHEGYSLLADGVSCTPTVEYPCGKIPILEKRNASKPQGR
T2 sequence (P08709 213-466): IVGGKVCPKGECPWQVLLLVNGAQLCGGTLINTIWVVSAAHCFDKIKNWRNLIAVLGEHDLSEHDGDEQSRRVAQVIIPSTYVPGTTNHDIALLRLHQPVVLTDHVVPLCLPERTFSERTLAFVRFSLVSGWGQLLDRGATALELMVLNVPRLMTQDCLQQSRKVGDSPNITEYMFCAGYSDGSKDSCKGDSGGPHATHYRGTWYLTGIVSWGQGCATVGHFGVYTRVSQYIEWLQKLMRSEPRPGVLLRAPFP
Put plainly: Kd for VIIa binding to TF (X activation rate as readout). The conditions noted are these: purified proteins; membTF in PCPS liposomes; sTF-5AA-(His)6 plus NiPCPS liposomes; read-out: VIIa binding Kd. On the procedure:
When VIIa binds to TF, its rate of X activation increases dramatically, so this can be used as a convenient readout for TF:VIIa complex formation. […] Therefore, when the isolated TF ectodomain was attached to the membrane surface via interaction with metal-chelating lipids, its VIIa binding ability was indistinguishable from membTF that spanned the lipid bilayer.
Measurement of the Kd for VIIa binding to TF—The binding affinity of VIIa for various forms of TF was measured using the TF-dependent increase in the rate of X activation as the readout for TF:VIIa complex formation. Activation of X by the TF:VIIa complex was measured by adapting the continuous chromogenic assay of Fiore et al.. Reaction mixtures containing Vila and either rTF/PCPS or sTF+SUVs were prepared in HBSAC. Reactions were initiated by adding a mixture of X and the chromogenic substrate, S-2222, in a flat bottom, 96-well plate. Change in A405 was monitored at ambient temperature in a VERSAmax microplate reader (Molecular Devices), sampling every 15 sec for 20 min. Initial rates of X activation were determined by fitting a second-order polynomial to the A405 data as described. The quadratic ligand binding equation was fit to the rate data as described to derive apparent Kd values for the binding of VIIa to TF. For experiments using relipidated rTF, typical reaction mixtures containing 0.25 μM VIIa and 20 nM X in HBSAC were incubated with increasing concentrations of rTF/PCPS.

For a further data set, the target named is T3, X activation by VIIa (Homo sapiens, UniProt P08709).
T3 construct: VIIa or factor VIIa means coagulation factor VIIa (active enzyme); purchased American Diagnostica
Put plainly: Factor X activation using liposomes. Format: biochemical. Conditions: 500 pM VIIa, 4 pM TF, 50 μM total lipid; liposomes. Here is the method:
A stringent test of TF:VIIa function is its ability to support the activation of its natural protein substrate, X. This requires that TF be incorporated into a suitable phospholipid membrane (i.e., one containing negatively charged phospholipids). […] The ability of various forms of TF to support the activation of X was compared under equivalent concentrations of enzyme (500 pM VIIa), cofactor (4 pM TF) and liposomes (50 μM total lipid).
Factor X activation using liposomes. […] At varying times, 20 μl aliquots were removed into a 96-well plate containing 100 μl Stop Buffer 1 (40 mM Mes-NaOH pH 5.8, 12 mM EDTA, 50 mM NaCl, 0.25% Triton X-100, 0.1% NaN3, 0.012% Antifoam C) at 4° C. After warming the stopped reactions to room temperature, Xa was detected by adding 60 μl of 1.5 mM Spectrozyme Xa in HBSAC plus 0.6 M Tricine-NaOH, pH 8.4 and quantifying change in A405. Amounts of Xa generated were determined by comparison to a standard curve with purified Xa.

T1 sequence (P08709 61-466, one chain of several): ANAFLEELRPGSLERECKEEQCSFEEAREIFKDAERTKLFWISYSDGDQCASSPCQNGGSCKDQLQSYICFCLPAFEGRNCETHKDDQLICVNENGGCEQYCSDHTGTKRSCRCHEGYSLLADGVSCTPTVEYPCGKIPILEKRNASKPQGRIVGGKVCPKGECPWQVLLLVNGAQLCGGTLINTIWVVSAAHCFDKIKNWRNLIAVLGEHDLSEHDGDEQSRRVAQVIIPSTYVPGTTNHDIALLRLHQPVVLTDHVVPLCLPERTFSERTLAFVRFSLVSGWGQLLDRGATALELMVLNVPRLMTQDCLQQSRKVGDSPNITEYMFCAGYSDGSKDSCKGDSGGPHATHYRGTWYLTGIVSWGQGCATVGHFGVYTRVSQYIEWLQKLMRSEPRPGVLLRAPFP

B1: membTF: recombinant membrane-bound tissue factor (protein, UniProt P13726 1-295, looked up)
chain: METPAWPRVPRPETAVARTLLLGWVFAQVAGASGTTNTVAAYNLTWKSTNFKTILEWEPKPVNQVYTVQISTKSGDWKSKCFYTTDTECDLTDEIVKDVKQTYLARVFSYPAGNVESTGSAGEPLYENSPEFTPYLETNLGQPTIQSFEQVGTKVNVTVEDERTLVRRNNTFLSLRDVFGKDLIYTLYYWKSSSSGKKTAKTNTNEFLIDVDKGENYCFSVQAVIPSRTVNRKSTDSPVECMGQEKGEFREIFYIIGAVVFVVIILVIILAISLHKCRKAGVGQSWKENSPLNVS
modifications: full-length
By Kd is commonly meant the equilibrium constant for the complex coming apart. Broadly, the Km is the substrate concentration at which the rate is half of its maximum. In the case of B1, in the data set with VII, the “VII autoactivation k2D” value is 3.4 (±0.15) × 10^7 m^2 mol^−1 s^−1. In addition, the dissociation constant Kd with VIIa was found to be 0.01 nM. Further, in the data set with X activation by VIIa, the Km is 0.059 ± 0.00088 µM and the X activation kcat worked out at 3.5 ± 0.38 s⁻¹.

For the origin of these results see patent publication US20080260858A1, “Universal Procoagulant” (The Board of Trustees of the University of Illnois, priority 2005, published 2008).
